According to PMC3627194, “Xentry, a new class of cell-penetrating peptide uniquely equipped for delivery of drugs” (Scientific Reports, 2013):
Non-standard residues stand in square brackets, D forms with d. Residues, ends and D or L forms follow the SMILES beside them. No end group written: not given here. *: point of attachment. FITC = O=C1OC2(c3ccc(O)cc3Oc3cc(O)ccc32)c2ccc(NC(=S)*)cc21; Biotin = O=C1N[C@H]2[C@H](CS[C@H]2CCCCC(=O)*)N1

Assays:
[1] = Biodistribution of a Xentry-β-galactosidase conjugate in mice (X-gal staining); type: in vivo, Balb/c mice
Experimental: One milligram of recombinant β-galactosidase (Medicago AB, Uppsala, Sweden) was cross-linked to 0.2 mg of a FITC-labelled Xentry peptide fused to a polyglutamine stretch (FITC-lclrpvggrrQQQQQQrr; Peptide 2.0 Inc., Chantilly, VA) with 4.8 μg of transglutaminase in 40 μl of transglutaminase buffer for 1 h at 37°C. […] Control mice (one mouse per time point) were intravenously injected with 1 mg of unconjugated β-galactosidase. The heart, lungs, liver, spleen, pancreas, kidneys, stomach, small intestine, colon, muscle and brain of each mouse were collected, and frozen at −80°C. Frozen organ sections were fixed in 0.25% glutaraldehyde for 15 min, washed thrice with PBS and stained with 1 mg/ml of X-gal (Sigma, MO) for 3 h at 37°C. The sections were washed thrice with PBS, examined by light microscopy and photographed.

live HepG2 cells = conditions: live unfixed cells, 3 h 37°C, β-galactosidase substrate C12FDG 10 min, fluorescence microscopy
Experimental: (a) Visualization of the internalization of an unlabelled Xentry-β-galactosidase conjugate, and unconjugated β-galactosidase, after a 10 min incubation with live cells preloaded with the green fluorescent substrate C12FDG.
HepG2 cells were seeded at 1 × 10^5 cells per well into 8-well chamber slides, and cultured overnight at 37°C in a 5% CO2 atmosphere. They were washed thrice with serum-free MEM media, and 500 μl of serum-free MEM added to the wells. A Xentry peptide (biotin-[sequence]; Peptide 2.0 Inc., Chantilly, VA) where LCLRP was fused to a polyglutamine stretch was conjugated to recombinant β-galactosidase. A 30 μl solution containing conjugation buffer (5 mM CaCl2, 1 mM DTT, 50 mM Tris-HCl), 0.84 μg of Xentry peptide, 16.5 μg of β-galactosidase (5 U; Sigma, MO), and 4.8 μg of transglutaminase (Ajinomoto, Itasca, IL) was incubated for 1 h at 37°C. The resulting conjugate was added to the cells, which were incubated for 3 h at 37°C. The cells were washed thrice with PBS, and the β-galactosidase substrate 5-dodecanoylaminofluorescein di-β-D-galactopyranoside (Imagene C12FDG; Invitrogen Life Technologies New Zealand Ltd) added, followed by incubation for 10 min at 37°C. The cells were washed, and examined using a Nikon E600 fluorescence microscope and photographed.

HepG2 cells = assay: Assay to test for cell permeability of peptides; type: cell-based; conditions: 3 h
Experimental: Figure 1 Cell-permeability of X-protein peptides. (a) X-protein peptides aa 1–20 and 16–35 are cell-permeable. Four FITC-labelled peptides encompassing aa 1–20, 16–35, 21–40 and 34–53 from the N-terminal region of the X-protein were incubated at 10 μM with HepG2 cells and their uptake by the cells recorded by confocal microscopy. Cell nuclei were stained blue with DAPI. (b) The sequence of the first 35 N-terminal residues of the HBV X-protein are shown with the sequence of Xentry (LCLRPVG; residues 16–22) highlighted in red. Short FITC-labelled peptides (10 μM) aa 16–26, 16–24 and 16–22 (Xentry) derived from peptide aa 16–35 also permeate HepG2 cells (upper panel). […] Cell nuclei were stained blue with DAPI. […] Cell nuclei were stained blue with DAPI. Scale bar, 50 μm.
HepG2 cells (ATCC, Manassas, VA) were seeded into 8-well chamber slides at 1 × 10^5 cells per well in MEM media (Gibco, Life Technologies New Zealand Ltd) containing 10% FCS and PSG. […] L-isomeric peptides were diluted in 500 μl of MEM media without FCS, whereas D-isomeric peptides were diluted in the same media containing FCS, and each added to cells at a final concentration of 10 μM, or as indicated. The cells were incubated for 3 h at 37°C in a 5% CO2 atmosphere, washed with PBS, fixed with 4% formaldehyde for 30 min, and washed thrice with PBS. A drop of Prolong Gold anti-fade reagent with DAPI (Invitrogen, Life Technologies New Zealand Ltd) was added, and the cells mounted and examined with a Nikon E600 fluorescence microscope or a Leica TCS-SP2 confocal microscope.
(§1) Supplementary Figure 3. The D-isomeric form of Xentry aa 16-22 is cell permeable, and is stable in serum for at least 4 h.
(§2) (a) FITC-labelled D-isomeric Xentry was incubated with HepG2 cells at concentrations of […] for 3 h.
(§3) Uptake was recorded by fluorescence microscopy. Cell nuclei were stained with DAPI. (b) FITC-labelled L-isomeric and D-isomeric forms of Xentry were incubated in serum for 0, 1, and 4 h before incubation with HepG2 cells. Cell nuclei were stained with DAPI. Scale bar, 50 μm. […]

syndecan-4 = target: T1, syndecan-4 (Homo sapiens, UniProt P31431); assay: Anti-syndecan 4 antibody blockade of Xentry uptake by HepG2 cells; type: cell-based; conditions: FITC-lclrpvg 10 μM, 3 h
T1 construct: endogenous in cells; host or cells: HepG2 (ATCC)
T1 sequence (P31431 19-198): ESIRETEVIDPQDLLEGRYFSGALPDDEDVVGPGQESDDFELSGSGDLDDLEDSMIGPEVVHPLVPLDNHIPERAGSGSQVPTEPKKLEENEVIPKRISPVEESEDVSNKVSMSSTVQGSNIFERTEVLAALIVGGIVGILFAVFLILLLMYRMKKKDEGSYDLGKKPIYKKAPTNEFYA
Experimental: Cell nuclei were stained blue with DAPI. […] Scale bar, 50 μm.
The media was replaced with 500 μl of MEM media containing 10% FCS and either 1 μg/ml of a goat anti-human syndecan-4 antibody (R&D Systems, Minneapolis, MN), or 1 μg/ml of the control goat anti-human TNF-related apoptosis-inducing ligand (TRAIL) antibody (Santa Cruz Biotechnology Inc., Santa Cruz, CA). The cells were then incubated at 37°C and 5% CO2 for 30 min. FITC-labelled Xentry (FITC-lclrpvg) was added at a final concentration of 10 μM and the cells incubated for 3 h at 37°C in a 5% CO2 atmosphere. The cells were washed thrice with PBS, fixed with 4% formaldehyde for 15 min, washed with PBS, and DAPI added for visualization of cell nuclei. They were examined using a Nikon E600 fluorescence microscope, and photographed.

[2] = type: in vitro ADME; conditions: FITC-labelled peptide incubated in serum 0, 1 and 4 h, then incubated with HepG2 cells; read-out cell uptake by fluorescence microscopy
Experimental: as §1, §2, §3

WM-266-4 melanoma cells [3] = assay: Apoptosis of melanoma cells by Xentry-conjugated anti-B-raf antibody (annexin-V fluos); type: cell-based; conditions: annexin-V fluos staining
Experimental: HepG2 cells were seeded at 1 × 10^5 cells per well into 8-well chamber slides, and cultured overnight at 37°C in an atmosphere of 5% CO2. They were washed thrice with serum-free MEM media and resuspended in 500 μl of serum-free MEM. A 30 μl solution containing conjugation buffer, 0.85 μg of the Xentry peptide biotin-[sequence], 9 μg of a FITC-labelled rabbit IgG (Sigma, MO) or 1 μg of a rabbit polyclonal anti-B-raf antibody (Sigma, MO), and 4.8 μg of transglutaminase was incubated for 1 h at 37°C. The resulting conjugates were added to the cells, which were incubated for 3 h at 37°C and washed thrice with PBS. […] Cells incubated with the Xentry-anti-B-raf antibody conjugate were stained with annexin-V Fluos (Roche Diagnostics NZ Ltd., Auckland) to detect cell apoptosis. The cells were examined using a Nikon E600 fluorescence microscope, and photographed.

WM-266-4 melanoma cells [4] = assay: Xentry-KALA fusion peptide delivery of anti-B-raf siRNA, apoptosis (annexin-V fluos); type: cell-based; conditions: 10 μM Xentry-KALA fusion peptide with 30 nM Tex615-labelled siRNA against B-raf, 72 h
Experimental: Figure 3 Xentry-mediated delivery of antibody and siRNA cargoes into cells. (a) Uptake of Xentry-conjugated and unconjugated FITC-labelled rabbit IgG by HepG2 cells. Cell nuclei were stained blue with DAPI. (b) Representative cell showing staining of tubulin by a Cy3-labelled anti-β-tubulin antibody delivered to HepG2 cells by Xentry. HepG2 cells were incubated with the Xentry- anti-β-tubulin antibody conjugate for 1 h, washed, then incubated and photographed 24 h later. For comparison, a representative fixed and permeabilized cell is shown which has been stained by the free anti-β-tubulin antibody. […] (c) The abilities of a Xentry-conjugated and unconjugated anti-B-raf antibody to induce the apoptosis of WM-266-4 melanoma cells, as evidenced by staining of cells with annexin-V fluos (green). […] For comparison, the anti-B-raf siRNA was transfected into cells using the PolyMag agent. The siRNA was omitted from controls. Scale bar, 50 μm.
A 600 μl solution was prepared containing 30 nM of a Tex615-labelled siRNA against B-raf (sense 5′-XAGAAUUGGAUCUGGAUCAUTTY-3′; antisense 5′-[…]-3′; X = C12 amino, Y = Tex615) (Integrated DNA Technologies, Iowa) and 10 μM of a Xentry-KALA fusion peptide (biotin-[…]; Peptide 2.0 Inc., Chantilly, VA). […] Cells were stained with annexin-V Fluos to detect apoptotic cells by fluorescence microscopy, and photographed. […]

## FITC-lclrpvggrrQQQQQQrr [Xentry-β-galactosidase conjugate, recombinant β-galactosidase cross-linked to FITC-labelled D-form Xentry polyglutamine peptide (injected into mice)]
[1]; 1 mg i.v., 1 h, intensity of staining diminished
  Retention in stained organs at 1 h, except for the brain: retained the bioactive conjugate
[1]; 1 mg i.v., 6 h
  β-galactosidase activity in organs at 6 h: only the spleen and small intestine retained some β-galactosidase activity
[1]; 1 mg i.v., 24 h, data not shown
  β-galactosidase activity in organs by 24 h: completely lost
[1]; 1 mg i.v., X-gal stained sections
  Distribution within organs: concentrated in the enterocytes of the small intestine, epithelium of the stomach, and in the marginal zone or marginal sinus of the spleen
[1]; 1 mg i.v., data not shown
  Staining of pancreas, colon and muscle at 15 min: poorly stained
[1]; 1 mg i.v., lungs, liver, spleen, kidneys, stomach, small intestine, colon, muscle, brain listed as stained
  X-gal staining of organs at 15 min: most of the organs stained blue

## unconjugated β-galactosidase: recombinant β-galactosidase without Xentry, control [reference compound]
[1]; 1 mg unconjugated β-galactosidase i.v., one mouse per time point, data not shown
  X-gal staining of organs: did not stain
Live HepG2 cells
  Uptake by live HepG2 cells: not

## CC(C)C[C@@H](NC(=O)[C@@H](CS)NC(=O)[C@@H](CC(C)C)NC(=S)Nc1ccc2c(c1)C(=O)OC21c2ccc(O)cc2Oc2cc(O)ccc21)C(=O)N[C@H](CCCNC(=N)N)C(=O)N1CCC[C@@H]1C(=O)N[C@@H](C(=O)NCC(=O)O)C(C)C [D-isomeric form] ({FITC}-[dL][dC][dL][dR][dP][dV]G-OH)
HepG2 cells; FITC-labelled D-isomeric Xentry 10, 20, 50 and 100 µM
  Uptake into HepG2 cells at increasing concentrations: increased uptake
HepG2 cells; FITC-labelled D-isomeric Xentry, media containing FCS, fluorescence microscopy
  Cell permeability (HepG2 cells): cell-permeable
syndecan-4; 1 μg/ml control antibody against TRAIL
  Uptake by HepG2 cells after control anti-TRAIL antibody: no effect
syndecan-4; 1 μg/ml goat anti-human syndecan-4 antibody 30 min pre-incubation, MEM 10% FCS
  Uptake by HepG2 cells after anti-syndecan-4 antibody: blocked
[2]
  Time stable in serum: at least 4 h

## Biotin-LCLRPVGGGRRRQQQQQQRRR [Xentry-anti-B-raf antibody conjugate, rabbit polyclonal anti-B-raf antibody conjugated to Xentry polyglutamine peptide]
WM-266-4 melanoma cells [3]
  Apoptosis of WM-266-4 melanoma cells: undergo apoptosis

## Biotin-LCLRPVGGGWEAKLAKALAKALAKHLAKALAKALKACEA (cysteine pairing not given here) [Xentry-KALA fusion peptide, tested as complex with anti-B-raf siRNA]
WM-266-4 melanoma cells [4]
  Apoptosis of WM-266-4 melanoma cells: causing cell apoptosis
